Measured values taken from patent US20200102355A1.

What was measured:
[1] = biological target: TSC (BMC-T1 / HO-5812 with SpyCatcherΔN1ΔC2 inserted on the lumenal side, flanked by six residue glycine-serine linkers) (Haliangium ochraceum) (UniProt D0LHE3); assay: calculated from fluorescence intensity of purified shells
[2] = biological target: TST (BMC-T1 / HO-5812 with SpyTag inserted on the lumenal side, flanked by six residue glycine-serine linkers) (Haliangium ochraceum); assay: as above
[3] = biological target: STprobe (SpyTag-mTurquoise2-TEV protease cleavage site-tetracysteine motif-6xHis permeability probe)

Chain of TST (BMC-T1 / HO-5812 with SpyTag inserted on the lumenal side, flanked by six residue glycine-serine linkers) (Haliangium ochraceum) (D0LHE3 whole entry): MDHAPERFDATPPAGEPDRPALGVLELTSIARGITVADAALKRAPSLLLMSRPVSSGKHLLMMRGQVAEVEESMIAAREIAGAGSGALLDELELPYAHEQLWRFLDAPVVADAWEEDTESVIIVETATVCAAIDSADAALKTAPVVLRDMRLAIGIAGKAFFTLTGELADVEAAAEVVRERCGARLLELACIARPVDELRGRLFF

STcfp (mTurquoise2 with N-terminal 13 residue SpyTag and C-terminal hexahistidine tag)
copies of cfp cargo per shell (copies per shell) [1]: 73

SCcfp (6xHis-SpyCatcher-mTurquoise2)
copies of cfp cargo per shell (copies per shell) [2]: 58

B1: tobacco etch virus protease (TEVp) (protein)
chain: GESLFKGPRDYNPISSTICHLTNESDGHTTSLYGIGFGPFIITNKHLFRRNNGTLLVQSLHGVFKVKNTTTLQQHLIDGRDMIIIRMPKDFPPFPQKLKFREPQREERICLVTTNFQTKSMSSMVSDTSCTFPSSDGIFWKHWIQTKDGQCGSPLVSTRDGFIVGIHSASNFTNTNNYFTSVPKNFMELLTNQEAQQWVSGWRLNADSVLWGGHKVFMSKPEEPFQPVKEATQLMN
fluorescence emission shift (FRET of mTurquoise2 to FlAsH) reverted on TEVp addition, probe in uncapped shells [3]: Addition of the FlAsH reagent to the shells results in a fluorescence emission shift which is reverted upon TEVp addition
